# Target: T1, SARS-CoV-2 S HexaPro Protein (SARS-CoV-2, Wuhan-Hu-1, stabilised)
# T1 construct: also called Hexapro spike; SARS-CoV-2 spike ectodomain
# Test: cryo-EM structure
# Conditions: both partners purified
binder,measurement,value
"DH1338 antigen-binding fragment (Fab) (Fab, V domains shown, also called DH1338 Fab) VH: QLQLQESGPGLVKPSETLSLTCAVSGGSISRKNWSWIRQPPGKGLGWIGRISGSGGSTDYNPSLKSRVTISTDTSKNQFSLKLSSVTAADTAVYYCARVAYYEDDYGYYYTEGAFDFWGQGLRVTVSS VL: EIVMTQSPATLSLSPGERATLSCRTSQSVSSYVAWYQQKPEQTPRLLIYDASSRATGIPDRFSGGGSGTDFTLTISSLEPEDFAVYYCQQYSNWPWTFGQGTKVEIK",stoichiometry N,3

# — publication doi:10.1101/2023.12.18.572191, “Broadly neutralizing antibody induction by non-stabilized SARS-CoV-2 Spike mRNA vaccination in nonhuman primates” (bioRxiv, 2023)
